Experimental data as given in patent US7025971.

How the values were obtained:
[1] = target: PapD (wild type) (E. coli) (UniProt P15319); test: soluble inhibition ELISA: 25-fold molar excess of peptide, 100 pmol/well PapD, G1′-19′WT-coated wells
[2] = target: PapD (wild type) (E. coli) (UniProt P15319); test: cell-based or functional assay

Sequence of PapD (wild type) (E. coli) (P15319 22-239 limits assumed): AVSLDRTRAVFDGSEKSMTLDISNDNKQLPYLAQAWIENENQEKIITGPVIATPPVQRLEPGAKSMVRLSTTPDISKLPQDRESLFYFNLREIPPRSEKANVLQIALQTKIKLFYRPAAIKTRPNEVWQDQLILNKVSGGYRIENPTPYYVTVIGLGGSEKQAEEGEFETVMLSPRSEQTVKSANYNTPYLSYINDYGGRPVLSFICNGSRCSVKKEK

Substance	% Inhibition [1] [%]	HA titer [2]	Piliation percentage [2] [%]	decrease of HA titer [2] [fold]
G2′-21′amide (peptide)	0			
MBP/G1′-81′ (from UniProt P0AEX9 27-392)		82	40	
MBP/G1′-140′ (from UniProt P0AEX9 27-392)		4	10	30
